Experimental data as given in US20260258125A1.

Experiments:
[1] = molecular target: membrane-bound endogenous human CEACAM5 and CEACAM6 on BxPC3 cells; assay: cell-based or functional assay
[2] = molecular target: membrane-bound endogenous human CEACAM5 and CEACAM6 on LS 174T cells; assay: cell-based or functional assay
[3] = molecular target: membrane-bound endogenous human CEACAM5 and CEACAM6 on BxPC3 cells; assay: flow cytometry on BxPC3 cells
[4] = molecular target: membrane-bound endogenous human CEACAM5 and CEACAM6 on LS 174T cells; assay: flow cytometry on LS 174T cells
[5] = molecular target: human CEACAM6 on 293T cells (293T-huCEACAM6 cells) (human) (UniProt P40199); assay: cell-based or functional assay
Chain of human CEACAM6 on 293T cells (293T-huCEACAM6 cells) (human) (P40199 35-320): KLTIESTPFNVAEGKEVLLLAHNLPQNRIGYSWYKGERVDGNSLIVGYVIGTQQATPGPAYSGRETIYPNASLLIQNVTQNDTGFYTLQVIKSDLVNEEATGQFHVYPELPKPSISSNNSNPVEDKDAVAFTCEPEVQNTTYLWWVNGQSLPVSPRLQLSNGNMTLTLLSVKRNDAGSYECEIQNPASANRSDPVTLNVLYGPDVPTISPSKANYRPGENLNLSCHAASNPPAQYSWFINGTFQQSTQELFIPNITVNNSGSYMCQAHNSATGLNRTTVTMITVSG

[6] = molecular target: human CEACAM5 on 293T cells (293T-huCEACAM5 cells) (human) (UniProt P06731); assay: cell-based or functional assay
Chain of human CEACAM5 on 293T cells (293T-huCEACAM5 cells) (human) (P06731 35-685 limits assumed): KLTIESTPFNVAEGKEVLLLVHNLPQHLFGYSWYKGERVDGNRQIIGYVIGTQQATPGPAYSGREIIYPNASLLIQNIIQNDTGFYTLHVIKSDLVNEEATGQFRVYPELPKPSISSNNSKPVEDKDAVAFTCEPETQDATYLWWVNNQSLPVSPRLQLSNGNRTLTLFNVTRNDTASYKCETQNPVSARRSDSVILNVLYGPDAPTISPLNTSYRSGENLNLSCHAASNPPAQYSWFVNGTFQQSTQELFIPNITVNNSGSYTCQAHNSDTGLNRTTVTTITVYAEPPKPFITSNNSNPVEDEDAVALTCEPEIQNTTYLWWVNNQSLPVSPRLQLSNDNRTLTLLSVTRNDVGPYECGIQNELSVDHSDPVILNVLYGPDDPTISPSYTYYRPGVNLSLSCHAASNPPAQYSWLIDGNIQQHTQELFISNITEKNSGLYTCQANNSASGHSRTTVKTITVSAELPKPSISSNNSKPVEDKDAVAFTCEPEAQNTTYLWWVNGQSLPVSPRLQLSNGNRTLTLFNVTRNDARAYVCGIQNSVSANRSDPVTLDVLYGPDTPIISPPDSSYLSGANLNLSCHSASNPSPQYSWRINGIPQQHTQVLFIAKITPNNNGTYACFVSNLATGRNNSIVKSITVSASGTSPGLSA

[7] = molecular target: antigen of the anti-CEACAM5/6 antibodies on HPAC cells; assay: cell-based or functional assay
[8] = molecular target: human CEACAM6 on 293T cells (293T-huCEACAM6 cells) (human) (UniProt P40199); assay: cell-based or functional assay; design: unit not given beside the values
[9] = molecular target: membrane-bound endogenous human CEACAM5 and CEACAM6 on BxPC3 cells; assay: cell-based or functional assay; design: unit not given beside the values
[10] = molecular target: membrane-bound endogenous human CEACAM5 and CEACAM6 on LS 174T cells; assay: cell-based or functional assay; design: unit not given beside the values
[11] = molecular target: human CEACAM5 on 293T cells (293T-huCEACAM5 cells) (human) (UniProt P06731); assay: cell-based or functional assay; design: unit not given beside the values

Internalization of pHAb-dye-labelled antibody, MFI (37° C.-4° C.)/DAR [1]	Internalization of pHAb-dye-labelled antibody, MFI (37° C.-4° C.)/DAR [2]	EC50 [3]	EC50 [4]	Internalization of pHAb-dye-labelled antibody, MFI (37° C.-4° C.)/DAR [5]	Internalization of pHAb-dye-labelled antibody, MFI (37° C.-4° C.)/DAR [6]	Internalization of pHAb-dye-labelled antibody, MFI (37° C.-4° C.)/DAR [7]	Substance	IC50 of in vitro cytotoxicity of the ADC (CellTiter-Glo, 6 days) [8]	IC50 of in vitro cytotoxicity of the ADC (CellTiter-Glo, 6 days) [9]	IC50 of in vitro cytotoxicity of the ADC (CellTiter-Glo, 6 days) [10]	IC50 of in vitro cytotoxicity of the ADC (CellTiter-Glo, 6 days) [11]
8230	1320	3.06 nM	1.74 nM	–	–	–	PR303561 (Tusamitamab) (antibody)	–	–	–	–
0	468	–	–	975	888	3010	non-relevant IgG isotype control (Crownbio, hIgG1) (antibody)	–	–	–	–
–	–	–	–	–	–	–	IgG-MMAE	72	100	700	66
